Experimental data published in the supplement of paper PMC7877785.
± gives the uncertainty stated by the source.

Experiment: self-splicing fitness, log relative to wild type (ln ratio); higher = more splicing; Tetrahymena group I intron in knt gene, E. coli kanamycin selection, DiMSum; sequences stand for … in CUCUCU…GGAGGGAAAAGUUAUCAGGCAUGCACCUGGUAGCUAGUCUUUAAACCAAUAGAUUGCAUCGGUUUAAAAGGCAAGACCGUCAAAUUGCGGGAAAGGGGUCAACAGCCGUUCAGUACCAAGUCUCAGGGGAAACUUUGAGAUGGCCUUGCAAAGGGUAUGGUAAUAAGCUGACGGACAUGGUCCUAACCACGCAGCCAAGUCCUAAGUCAACAGAUCUUCUGUUGAUAUGGAUGCAGUUCACAGACUAAAUGUCGGUCGGGGAAGAUGUAUUCUUCUCAUAAGAUAUAGUCGGACCUCUCCUUAAUGGGAGCUAGCGGAUGAAGUGAUGCAACACUGGAGCCGCUGGGAACUAAUUUGUAUGCGAAAGUAUAUUGAUUAGUUUUGGAGUACUCGUGGUCG
Procedure, shortened: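 DiMSum derived fitness as the error-weighted combination of fold changes across replicates, kanamycin versus no kanamycin, normalised to wild type. E. coli BL21(DE3) held the library, which randomised all eight P1ex-region intron nucleotides within the knt kanamycin-resistance gene on pET-22b(+). Six replicate transformations grew overnight at 37°C or 30°C on LB agar with or without 25 μg/mL kanamycin, also containing 100 μg/mL carbenicillin, 50 μM IPTG and 0.2% rhamnose, and pooled colonies were amplicon-sequenced on an Illumina HiSeq 2500.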

| Sequence | self-splicing fitness (ln) (30 °C) | self-splicing fitness (ln) (37 °C) |
| --- | --- | --- |
| CAUAAGCAAUAUUACGCGUU | -3.3 ± 0.15 | -1.55 ± 0.13 |
| CAUAAGCAAUAUUACGCUAG | -3.34 ± 0.16 | -2.4 ± 0.15 |
| CAUAAGCAAUAUUACGCUGU | -3.79 ± 0.27 | -1.05 ± 0.15 |
| CAUAAGCAAUAUUACGGAGA | – | -3.12 ± 0.38 |
| CAUAAGCAAUAUUACGGAUC | – | -1.38 ± 0.23 |
| CAUAAGCAAUAUUACGGCAU | -4.06 ± 0.31 | -1.15 ± 0.2 |
| CAUAAGCAAUAUUACGGCGG | 0.324 ± 0.087 | -0.0169 ± 0.12 |
| CAUAAGCAAUAUUACGGCUA | -1.56 ± 0.13 | -1.51 ± 0.12 |
| CAUAAGCAAUAUUACGGCUC | -2.88 ± 0.44 | -1.88 ± 0.43 |
| CAUAAGCAAUAUUACGGUAC | -2.89 ± 0.19 | -2.14 ± 0.29 |
| CAUAAGCAAUAUUACGGUCA | -2.41 ± 0.24 | -1.89 ± 0.2 |
| CAUAAGCAAUAUUACGUCAC | -3.86 ± 0.29 | – |
| CAUAAGCAAUAUUACGUGAA | -3.45 ± 0.2 | -2.14 ± 0.18 |
| CAUAAGCAAUAUUACGUGUC | -3.62 ± 0.2 | -2.55 ± 0.17 |
| CAUAAGCAAUAUUACGUUCG | -0.99 ± 0.079 | 0.184 ± 0.09 |
| CAUCAGCAAUAUUACGAAAC | -3.66 ± 0.47 | -3.45 ± 0.32 |
| CAUCAGCAAUAUUACGAACG | 0.463 ± 0.11 | 0.656 ± 0.11 |
| CAUCAGCAAUAUUACGACUG | -0.425 ± 0.084 | -0.238 ± 0.098 |
| CAUCAGCAAUAUUACGAGCG | -0.443 ± 0.059 | 0.466 ± 0.072 |
| CAUCAGCAAUAUUACGAUCA | -0.959 ± 0.11 | -0.294 ± 0.13 |
| CAUCAGCAAUAUUACGAUGG | -0.479 ± 0.057 | -0.173 ± 0.074 |
| CAUCAGCAAUAUUACGAUUG | -1.45 ± 0.054 | -0.782 ± 0.071 |
| CAUCAGCAAUAUUACGCAGA | -2.69 ± 0.21 | -2.86 ± 0.31 |
| CAUCAGCAAUAUUACGCAGG | -0.441 ± 0.062 | -1.15 ± 0.079 |
| CAUCAGCAAUAUUACGCCAC | -2.77 ± 0.46 | -2.22 ± 0.43 |

| Sequence | self-splicing fitness (ln) (30 °C) | self-splicing fitness (ln) (37 °C) |
| --- | --- | --- |
| CAUCAGCAAUAUUACGCCAU | -3.98 ± 0.35 | -2.97 ± 0.24 |
| CAUCAGCAAUAUUACGCGCG | 0.0702 ± 0.07 | 0.438 ± 0.084 |
| CAUCAGCAAUAUUACGCUAA | -2.1 ± 0.17 | -1.69 ± 0.16 |
| CAUCAGCAAUAUUACGCUGU | -3.65 ± 0.18 | -1.84 ± 0.15 |
| CAUCAGCAAUAUUACGGAUA | -0.862 ± 0.06 | 0.0386 ± 0.074 |
| CAUCAGCAAUAUUACGGAUU | -0.959 ± 0.062 | -0.143 ± 0.077 |
| CAUCAGCAAUAUUACGGCAC | -3.89 ± 0.24 | -2.56 ± 0.24 |
| CAUCAGCAAUAUUACGGCUU | -2.91 ± 0.14 | -1.75 ± 0.17 |
| CAUCAGCAAUAUUACGGGGG | -1.94 ± 0.084 | -0.816 ± 0.1 |
| CAUCAGCAAUAUUACGGUCU | -2.82 ± 0.1 | -2.22 ± 0.15 |
| CAUCAGCAAUAUUACGUCAC | -3.06 ± 0.15 | -2.68 ± 0.23 |
| CAUCAGCAAUAUUACGUGGA | -3.6 ± 0.19 | -2.05 ± 0.12 |
| CAUCAGCAAUAUUACGUGGC | -4.41 ± 0.27 | -2.72 ± 0.19 |
| CAUCAGCAAUAUUACGUGUA | -1.18 ± 0.083 | -0.43 ± 0.079 |
| CAUCAGCAAUAUUACGUGUU | -2.31 ± 0.12 | -2.79 ± 0.24 |
| CAUCAGCAAUAUUACGUUAC | -4.12 ± 0.39 | -1.92 ± 0.22 |
| CAUCAGCAAUAUUACGUUCU | -3.82 ± 0.2 | -3.32 ± 0.23 |
| CAUCAGCAAUAUUACGUUUG | -1.57 ± 0.064 | -0.71 ± 0.089 |
| CAUGAGCAAUAUUACGACUU | -3.95 ± 0.32 | -3.81 ± 0.36 |
| CAUGAGCAAUAUUACGAGCA | -3.68 ± 0.31 | -2.56 ± 0.23 |
| CAUGAGCAAUAUUACGAUAU | -3.32 ± 0.25 | -2 ± 0.31 |
| CAUGAGCAAUAUUACGAUUC | -3.18 ± 0.21 | -1.66 ± 0.19 |
| CAUGAGCAAUAUUACGCAAA | -3.92 ± 0.38 | -1.97 ± 0.24 |
| CAUGAGCAAUAUUACGCAUU | -2.88 ± 0.19 | -2.03 ± 0.24 |
| CAUGAGCAAUAUUACGCCAG | -1.94 ± 0.19 | -1.84 ± 0.24 |

| Sequence | self-splicing fitness (ln) (30 °C) | self-splicing fitness (ln) (37 °C) |
| --- | --- | --- |
| CAUGAGCAAUAUUACGCGCG | -1.29 ± 0.15 | 0.0218 ± 0.14 |
| CAUGAGCAAUAUUACGCUAG | -3.07 ± 0.21 | -2.82 ± 0.23 |
| CAUGAGCAAUAUUACGCUCC | – | -1.38 ± 0.48 |
| CAUGAGCAAUAUUACGCUGA | -3.24 ± 0.18 | -3.09 ± 0.23 |
| CAUGAGCAAUAUUACGGGGU | -3.25 ± 0.3 | -3.38 ± 0.33 |
| CAUGAGCAAUAUUACGGUGG | -1.49 ± 0.078 | -0.665 ± 0.088 |
| CAUGAGCAAUAUUACGGUUC | -3.65 ± 0.46 | -2.13 ± 0.38 |
| CAUGAGCAAUAUUACGUCCU | -4.2 ± 0.32 | -1.88 ± 0.2 |
| CAUGAGCAAUAUUACGUCUA | -2.57 ± 0.17 | -2.28 ± 0.21 |
| CAUGAGCAAUAUUACGUGAA | -3.86 ± 0.3 | -2.53 ± 0.29 |
| CAUGAGCAAUAUUACGUGCU | -3.6 ± 0.38 | -2.39 ± 0.32 |
| CAUGAGCAAUAUUACGUGUU | -3.85 ± 0.16 | -2.31 ± 0.15 |
| CAUGAGCAAUAUUACGUUGG | -2.69 ± 0.17 | -1.81 ± 0.15 |
| CAUGAGCAAUAUUACGUUUU | -3.66 ± 0.21 | -2.86 ± 0.24 |
| CAUUAGCAAUAUUACGAAUA | -2.12 ± 0.14 | -0.64 ± 0.13 |
| CAUUAGCAAUAUUACGAGUU | -3.7 ± 0.17 | -2.67 ± 0.18 |
| CAUUAGCAAUAUUACGAUAA | -2.24 ± 0.2 | -1.75 ± 0.23 |
| CAUUAGCAAUAUUACGAUCG | 0.173 ± 0.082 | 0.274 ± 0.12 |
| CAUUAGCAAUAUUACGAUUC | -2.1 ± 0.18 | -0.901 ± 0.17 |
| CAUUAGCAAUAUUACGCCUA | – | -1.73 ± 0.31 |
| CAUUAGCAAUAUUACGCGCU | -2.9 ± 0.21 | -1.51 ± 0.26 |
| CAUUAGCAAUAUUACGCGUG | -3.16 ± 0.15 | -2.89 ± 0.24 |
| CAUUAGCAAUAUUACGCUCU | -2.64 ± 0.2 | -1.43 ± 0.22 |
| CAUUAGCAAUAUUACGGAGG | -0.36 ± 0.11 | -0.878 ± 0.16 |
| CAUUAGCAAUAUUACGGCUC | -3.78 ± 0.28 | -1.39 ± 0.18 |

| Sequence | self-splicing fitness (ln) (30 °C) | self-splicing fitness (ln) (37 °C) |
| --- | --- | --- |
| CAUUAGCAAUAUUACGGUAC | -1.9 ± 0.16 | -2.07 ± 0.46 |
| CAUUAGCAAUAUUACGGUUG | -1.63 ± 0.09 | -0.664 ± 0.11 |
| CAUUAGCAAUAUUACGUAUC | -3.14 ± 0.31 | -2.26 ± 0.28 |
| CAUUAGCAAUAUUACGUCAU | -4.39 ± 0.3 | -2.48 ± 0.21 |
| CAUUAGCAAUAUUACGUCGA | -2.75 ± 0.14 | -2.05 ± 0.12 |
| CAUUAGCAAUAUUACGUGCU | -4.27 ± 0.24 | -2.36 ± 0.27 |
| CCAAAGCAAUAUUACGAAGU | -3.04 ± 0.15 | -2.42 ± 0.2 |
| CCAAAGCAAUAUUACGAAUA | -3.55 ± 0.32 | -1.51 ± 0.18 |
| CCAAAGCAAUAUUACGACAU | -3.658 ± 0.02 | -2.82 ± 0.037 |
| CCAAAGCAAUAUUACGACGC | -3.71 ± 0.35 | – |
| CCAAAGCAAUAUUACGAGGG | -3.76 ± 0.22 | -1.56 ± 0.16 |
| CCAAAGCAAUAUUACGAGGU | -4.24 ± 0.2 | -1.71 ± 0.13 |
| CCAAAGCAAUAUUACGAUAA | -3 ± 0.17 | -0.828 ± 0.18 |
| CCAAAGCAAUAUUACGAUAG | -0.734 ± 0.086 | 0.171 ± 0.11 |
| CCAAAGCAAUAUUACGCAAA | -3.41 ± 0.25 | -1.72 ± 0.17 |
| CCAAAGCAAUAUUACGCACA | -3.55 ± 0.34 | -1.66 ± 0.32 |
| CCAAAGCAAUAUUACGCCAA | -2.73 ± 0.2 | -1.96 ± 0.23 |
| CCAAAGCAAUAUUACGCCGG | -5.01 ± 0.41 | -2.38 ± 0.2 |
| CCAAAGCAAUAUUACGCGCC | -3.43 ± 0.21 | -2.71 ± 0.27 |
| CCAAAGCAAUAUUACGCGGG | -4.4 ± 0.42 | -1.38 ± 0.16 |
| CCAAAGCAAUAUUACGCUUU | -3.57 ± 0.16 | -2.73 ± 0.21 |
| CCAAAGCAAUAUUACGGACC | – | -1.51 ± 0.29 |
